Results reported in patent publication US20080161236 (published 2008).

Assays:
[1] = molecular target: Botulinum neurotoxin serotype B light chain (Clostridium botulinum, UniProt B1INP5 B1INP5:2-441)
[2] = molecular target: Botulinum neurotoxin serotype B holotoxin (Clostridium botulinum, UniProt B1INP5;B1INP5 B1INP5:2-441,B1INP5:442-1291)
[3] = molecular target: Botulinum neurotoxin serotype A light chain (50 kD zinc endopeptidase) (Clostridium botulinum, UniProt P0DPI1 P0DPI1:2-448)
[4] = molecular target: Botulinum neurotoxin serotype A holotoxin (Clostridium botulinum, UniProt P0DPI1;P0DPI1 P0DPI1:2-448,P0DPI1:449-1296)

Measured: binding result

Chain of Botulinum neurotoxin serotype B light chain (B1INP5 2-441, one chain of several): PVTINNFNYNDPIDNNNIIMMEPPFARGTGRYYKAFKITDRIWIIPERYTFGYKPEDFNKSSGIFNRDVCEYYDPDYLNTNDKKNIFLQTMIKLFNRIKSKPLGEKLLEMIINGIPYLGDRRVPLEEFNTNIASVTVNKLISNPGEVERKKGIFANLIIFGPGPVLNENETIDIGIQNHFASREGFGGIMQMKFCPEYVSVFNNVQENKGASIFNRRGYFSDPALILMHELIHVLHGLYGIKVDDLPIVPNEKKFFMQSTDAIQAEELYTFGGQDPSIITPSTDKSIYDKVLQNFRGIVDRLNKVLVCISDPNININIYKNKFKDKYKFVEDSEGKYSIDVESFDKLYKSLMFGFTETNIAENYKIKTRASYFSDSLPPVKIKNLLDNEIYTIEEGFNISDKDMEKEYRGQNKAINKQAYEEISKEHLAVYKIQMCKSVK
Chain of Botulinum neurotoxin serotype B holotoxin (B1INP5 2-441, chain 1 of 2): as the sequence (B1INP5 2-441, one chain of several) above
Chain of Botulinum neurotoxin serotype B holotoxin (B1INP5 442-1291, chain 2 of 2): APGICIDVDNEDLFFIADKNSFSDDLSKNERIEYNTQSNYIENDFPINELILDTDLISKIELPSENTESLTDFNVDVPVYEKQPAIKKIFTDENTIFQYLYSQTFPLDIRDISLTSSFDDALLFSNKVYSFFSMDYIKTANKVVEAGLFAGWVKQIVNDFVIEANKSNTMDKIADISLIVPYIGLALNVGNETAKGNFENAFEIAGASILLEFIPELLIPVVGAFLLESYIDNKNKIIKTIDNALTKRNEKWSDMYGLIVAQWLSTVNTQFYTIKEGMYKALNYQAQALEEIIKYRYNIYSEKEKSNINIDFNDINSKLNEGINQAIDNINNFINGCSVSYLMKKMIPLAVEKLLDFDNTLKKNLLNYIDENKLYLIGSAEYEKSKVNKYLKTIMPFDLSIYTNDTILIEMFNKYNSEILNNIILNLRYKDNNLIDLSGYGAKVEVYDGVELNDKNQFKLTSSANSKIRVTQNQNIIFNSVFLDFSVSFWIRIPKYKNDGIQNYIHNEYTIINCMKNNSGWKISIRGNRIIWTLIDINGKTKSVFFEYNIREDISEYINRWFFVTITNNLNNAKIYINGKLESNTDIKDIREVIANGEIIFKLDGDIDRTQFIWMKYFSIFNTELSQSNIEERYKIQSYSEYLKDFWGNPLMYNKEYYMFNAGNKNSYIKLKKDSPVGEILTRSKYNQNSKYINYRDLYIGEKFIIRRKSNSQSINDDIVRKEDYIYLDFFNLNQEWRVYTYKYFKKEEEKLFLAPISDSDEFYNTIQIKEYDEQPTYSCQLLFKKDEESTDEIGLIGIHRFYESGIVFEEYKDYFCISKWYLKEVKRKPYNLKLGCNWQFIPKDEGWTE
Chain of Botulinum neurotoxin serotype A light chain (50 kD zinc endopeptidase) (P0DPI1 2-448, one chain of several): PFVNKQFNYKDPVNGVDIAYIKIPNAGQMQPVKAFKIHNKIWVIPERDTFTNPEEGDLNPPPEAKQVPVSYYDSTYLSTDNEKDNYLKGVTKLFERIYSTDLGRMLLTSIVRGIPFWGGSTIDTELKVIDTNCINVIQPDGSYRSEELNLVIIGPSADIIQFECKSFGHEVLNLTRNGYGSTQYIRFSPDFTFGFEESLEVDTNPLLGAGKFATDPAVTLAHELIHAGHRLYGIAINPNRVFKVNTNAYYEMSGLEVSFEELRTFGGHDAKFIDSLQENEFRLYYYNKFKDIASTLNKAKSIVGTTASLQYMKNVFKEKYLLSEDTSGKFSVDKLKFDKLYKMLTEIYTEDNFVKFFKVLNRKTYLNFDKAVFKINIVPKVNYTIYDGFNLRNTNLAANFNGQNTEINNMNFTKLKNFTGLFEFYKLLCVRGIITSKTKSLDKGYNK
Chain of Botulinum neurotoxin serotype A holotoxin (P0DPI1 2-448, chain 1 of 2): as the sequence (P0DPI1 2-448, one chain of several) above
Chain of Botulinum neurotoxin serotype A holotoxin (P0DPI1 449-1296, chain 2 of 2): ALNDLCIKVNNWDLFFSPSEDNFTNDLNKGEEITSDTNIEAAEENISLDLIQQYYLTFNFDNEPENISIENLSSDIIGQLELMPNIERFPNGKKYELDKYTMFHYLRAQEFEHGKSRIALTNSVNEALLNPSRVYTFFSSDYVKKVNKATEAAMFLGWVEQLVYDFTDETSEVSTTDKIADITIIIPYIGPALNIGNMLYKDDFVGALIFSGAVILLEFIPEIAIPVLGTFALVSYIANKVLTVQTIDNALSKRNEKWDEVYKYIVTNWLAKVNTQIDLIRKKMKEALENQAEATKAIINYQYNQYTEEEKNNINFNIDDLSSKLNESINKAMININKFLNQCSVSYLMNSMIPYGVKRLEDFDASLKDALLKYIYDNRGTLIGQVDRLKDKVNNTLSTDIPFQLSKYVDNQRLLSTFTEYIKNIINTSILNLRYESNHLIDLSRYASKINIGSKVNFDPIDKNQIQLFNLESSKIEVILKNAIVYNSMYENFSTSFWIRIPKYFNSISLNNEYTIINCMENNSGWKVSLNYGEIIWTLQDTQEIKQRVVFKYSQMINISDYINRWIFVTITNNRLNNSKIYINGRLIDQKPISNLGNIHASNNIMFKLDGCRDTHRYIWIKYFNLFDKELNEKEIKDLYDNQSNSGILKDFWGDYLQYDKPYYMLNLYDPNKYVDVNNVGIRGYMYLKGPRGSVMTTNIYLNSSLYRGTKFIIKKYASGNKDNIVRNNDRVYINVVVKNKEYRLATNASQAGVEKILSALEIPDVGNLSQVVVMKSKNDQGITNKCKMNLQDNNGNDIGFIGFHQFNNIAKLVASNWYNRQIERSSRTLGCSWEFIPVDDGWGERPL

B1: BoNT A/B HT aptamer (ssDNA)
DNA: CATCCGTCACACCTGCTCTGCTATCACATGCCTGCTGAAGTGGTGTTGGCTCCCGTATCA
binds: [1] | [2] | [3]

B2: BoNT A/B LC aptamer (ssDNA)
DNA: CATCCGTCACACCTGCTCTGATCAGGGAAGACGCCAACACTGGTGTTGGCTCCCGTATCA
binds: all assays above
